Assay results reported in patent US20230002798A1, “PROCESS FOR THE PREPARATION OF A FERMENTABLE SUGAR COMPOSITION AND THE FERMENTATION THEREOF” (WeissBioTech GmbH, priority 2019, published 2023).

What was measured:
[1] = SSF of commercial liquefied starch with added alpha-amylase, panose content (Example 4); design: species or system Yeast (Deltaferm® AL-18); conditions: for reduction in panose compared to control / panose detected: after 60 h SSF; for panose detected: liquefied starch with glucoamylase and alpha-amylase, enzyme 187.5 kU per ton; for panose after 72 h: after 72 h SSF
Method: (§1) Residual sugars were quantified via HPLC. Samples were taken at the end of the SSF or during SSF at set time points. Samples were centrifuged for 1 min at 17 000 xg and sterile filtered (0.2 μm). The samples were frozen at −80° C. prior to measurements. Residual sugars were determined with a Zorbax NH2 column (Agilent Technologies, Inc., US) on an Agilent 1200 HPLC system.
For SSF, the enzyme product was used as crude Bacillus extract. Acidified liquefied starch from a commercial plant, containing no detectable amounts of panose, isomaltose, isomaltotriose or trehalose, was brought to pH 4.8. SSF medium components (5 g/L yeast extract, 5 g/L peptone, 1 g/L K2HPO4, 0.5 g/L Mg2SO4 in 50 mM citrate buffer, pH 4.8) were added to liquefied starch (300 g/L). The SSF medium containing starch was sterile filtered (0.2 μm). Yeast (Deltaferm® AL-18, WeissBioTech GmbH, Ascheberg, Germany) was grown in YINaC medium (50 g/L dextrose, 5 g/L yeast extract, 5 g/L peptone, 1 g/L K2HIPO4, 0.5 g/L Mg2SO4*7H2O, 2 g/L NH4Cl in 50 mM sodium citrate, pH 4.8) for 2 days at 37° C. and harvested by centrifugation for 15 min at 5100 rpm and 8° C. Pelleted yeast was added to the SSF at a final concentration of 6 g/L. Glucoamylase (Deltazym® GA L-E10, WeissBioTech GmbH, Ascheberg, Germany) was added at 200 g per ton of dry starch equivalent. Alpha-amylase (Fuelzyme®, BASF) was added at 200 g per ton of dry starch equivalent to simulate non-complete removal of alpha-amylase in industrial processes, which is often the cause for increased non-fermentable sugars. The enzyme product Agl1 or Gth was added to a final concentration of 187.5 kU per ton of dry starch equivalent. As control, no oligo-1,6-glucosidase/enzyme product was added. The SSF was performed at 30° C. without stirring or shaking for 72 h.

[2] = Temperature range of enzyme activity; assay type: biochemical; conditions: 30° C.-80° C. investigated
Method: The temperature range was investigated from 30° C.-80° C. by incubating the enzymes and measuring their activity at the respective temperature.

[3] = SSF of maltodextrins with added panose, 24 h (Example 1); design: species or system Yeast (Deltaferm® AL-18); conditions: SSF 24 h; for panose concentration reduced by: 20 g/L panose added; for ethanol concentration increase by % compared to the negative control / ethanol concentration increase compared to the negative control: 300 g/L maltodextrin + 20 g/L panose, enzyme 187.5 kU per ton; for ethanol concentration increase compared to the negative control: glucoamylase 40 g/t, 30° C., pH 4.8
Method: (§2) Quantification of ethanol yield Ethanol was quantified via HPLC. Samples were taken at the end of the SSF or during SSF at set time points. Samples were centrifuged for 1 min at 17,000 xg and sterile filtered (0.2 μm). The samples were frozen at −80° C. prior to measurements. Ethanol was determined with an Aminex 87C column (Bio-Rad Laboratories, Inc., US) on a Shimadzu HPLC system.
as §1
(§3) For simultaneous saccharification and fermentation (abbreviated SSF), the oligo-1,6-glucosidases—either Agl1 or Gth—were used as crude Bacillus extract. Glucidex® Maltodextrin 12 (Roquette, FR) was dissolved in SSF-medium (5 g/L yeast extract, 5 g/L peptone, 1 g/L K2HIPO4, 0.5 g/L Mg2SO4 in 50 mM citrate buffer, pH 4.8) at 300 g/L. Panose, isomaltose, isomaltotriose, maltose, maltotriose, or trehalose was added at 20 g/L. As a positive control, 20 g/L glucose was added instead of the respective sugar. The SSF medium containing starch hydrolysate (maltodextrins) and sugars was sterile filtered (0.2 μm). Yeast (Deltaferm® AL-18, WeissBioTech GmbH, Ascheberg, Germany) was grown in YINaC medium (50 g/L dextrose, 5 g/L yeast extract, 5 g/L peptone, 1 g/L K2HPO4, 0.5 g/L Mg2SO4*7H2O, 2 g/L NH4Cl in 50 mM sodium citrate, pH 4.8) for 2 days at 37° C. and harvested by centrifugation for 15 min at 5100 rpm and 8° C. Pelleted yeast was added to the SSF-medium at a final concentration of 6 g/L. Glucoamylase (Deltazym® GA L-E5, WeissBioTech GmbH, Ascheberg, Germany) was added at 40 g per ton of dry starch equivalent. The enzyme product Agl1 or Gth was added up to a final concentration of 187.5 kU per ton of dry starch equivalent. For the SSF with trehalose, Agl1 or Gth was added at 937.5 kU per ton of dry starch equivalent. As a negative control, an SSF as described above was run without oligo-1,6-glucosidase/enzyme product. The SSF was performed at 30° C. without stirring or shaking for 24 h.

[4] = Process stability (SSF medium without starch, pH 4.8, 30° C., 72 h); assay type: physicochemical; conditions: after 72 h at 30° C., pH 4.8, SSF medium without starch
Method: Process stability was determined by incubating the enzymes under process conditions (SSF medium without starch, pH 4.8, 30° C.) for 72 h and measuring the remaining activity.

[5] = Storage stability (50% v/v glycerol, 4° C.); assay type: physicochemical; conditions: at 4° C., extrapolated from 12 months data
Method: Storage stability was determined by measuring the activity of the enzymes stored in a glass container in a stabilizing formulation (50% v/v glycerol) at 4° C. over a time period of 12 months. […] “Without a loss in activity” is defined as an extrapolated activity of greater than 95% of the initial activity.

[6] = Lab-scale SSF run with 32% dextrins supplemented with panose; design: species or system alcohol yeasts (Deltaferm® AL-18); conditions: 30° C., pH 4.8, 72 h, glucoamylase 415 g/t, yeast 6 g/L
[7] = SSF of maltodextrins with added maltose, 24 h (Example 1); design: species or system Yeast (Deltaferm® AL-18); conditions: SSF 24 h, maltodextrin + 20 g/L maltose, enzyme 187.5 kU per ton
Method: as §2, §3

Molecule | reduction in panose compared to control [1] [%] | panose detected [1] [g/L] | panose after 72 h [1] | temperature range [2] | panose concentration reduced by [3] [%] | ethanol concentration increase by % compared to the negative control [3] [%] | ethanol concentration increase compared to the negative control [3] | process stability (remaining activity) [4] [%] | storage stability without a loss in activity [5] | increase of ethanol yield [6] [%] | ethanol concentration increase by % compared to the negative control [7] [%] | ethanol concentration increase compared to the negative control [7]
Gth: oligo-1,6-glucosidase of Parageobacillus thermoglucosidasius, amino acid sequence SEQ ID NO:2, expressed in Bacillus subtilis (protein, listed as Parageobacillus thermoglucosidasius, WP_042386239.1 alpha-glucosidase) MERVWWKEAVVYQIYPRSFYDSNGDGIGDIRGIIAKLDYLKELGVDVVWLSPVYKSPNDDNGYDISDYRDIMDEFGTMADWKTMLEEMHKRGIKLVMDLVVNHTSDEHPWFIESRKSKDNPYRDYYIWRPGKNGKEPNNWESVFSGSAWEYDEMTGEYYLHLFSKKQPDLNWENPKVRREVYEMMKFWLDKGVDGFRMDVINMISKVPELPDGEPQSGKKYASGSRYYMNGPRVHEFLQEMNREVLSKYDIMTVGETPGVTPKEGILYTDPSRRELNMVFQFEHMDLDSGPGGKWDIRPWSLADLKKTMTKWQKELEGKGWNSLYLNNHDQPRAVSRFGDDGKYRVESAKMLATFLHMMQGTPYIYQGEEIGMTNVRFPSIEDYRDIETLNMYKERVEEYGEDPQEVMEKIYYKGRDNARTPMQWDDSENAGFTAGTPWIPVNPNYKEINVKAALEDPNSVFHYYKKLIQLRKQHDIIVYGTYDLILEDDPYIYAYTRTLGNEQLIVITNFSEKTPVFRLPDHIIYKTKELLISNYDVDEAEELKEIRLRPWEARVYKIRLP | 57 | 2.3 | completely hydrolysed | 30-70 °C | 96 | 85 | 0.94 percentage points (v/v) | 80 | 18-24 month | 2 | 2.8 | 0.06 percentage points (v/v)
Agl1: oligo-1,6-glucosidase of Bifidobacterium breve UCC2003, amino acid sequence SEQ ID NO:1, expressed in Bacillus subtilis (protein, Bifidobacterium breve UCC2003; ACM89182.1 alpha-glucosidase 1) MMTTFNRAIIPDAIRTNGATPNPWWSNAVVYQIYPRSFQDTNGDGFGDLKGITSRLDYLADLGVDVLWLSPVYKSPQDDNGYDISDYQDIDPLFGTLDDMDELLAEAHKRGLKVVMDLVVNHTSDEHAWFEASKNKDDEHADWYWWRPARPGTTPGEPGSEPNQWGSYFGGSAWEYCPERGEYYLHQFSKKQPDLNWENPAVRRAVYDMMNWWLDRGIDGFRMDVITLISKRTDANGRLPGEYGSELDDLPVGEEGYSNPNPFCADGPRQDEFLKEMRREVFAGREGFLTVGEAPGITPVRNEHITNPANGELDMLFLFDHVDFDCDGVKWKPLPLDLPGFKRIMAGYQTAVENVGWASLFTGNHDQPRVVSRWGDDSSEESRVRSAKALGLMLHMHRGTPYVYQGEELGMTNAHFTSLDQYRDLESLNAYRQRVEEAKVQSPESMLAGIAARGRDNSRTPMQWDGSAYAGFTAPDAATEPWISVNPNHAEINAAGEFDDPDSVYAFYKKLIALRHNSSIVAAGEWQLIDADDAHVYAFTRTLGNERLLVVVNLSGRTVDLPRESTELIAGGVTEPDIILSTYDAPHTVVSLANRELDPWEAAAVQL | 50 | 2.7 | completely hydrolysed | 30-50 °C | 96 | 92 | 1.01 percentage points (v/v) | 80 | 18-24 month | 2 | 1.5 | 0.03 percentage points (v/v)
